# Source: FireProtDB (doi:10.1021/bi000176d)
# Several values for one entry are separate records, joined by “and”; a condition that tells them apart may be missing. Identical values can stand only once.
# B1: Glutathione S-transferase A1 wild type, P08263 (protein)
# chain: MAEKPKLHYFNARGRMESTRWLLAAAGVEFEEKFIKSAEDLDKLRNDGYLMFQQVPMVEIDGMKLVQTRAILNYIASKYNLYGKDIKERALIDMYIEGIADLGEMILLLPVCPPEEKDAKLALIKEKIKNRYFPAFEKVLKSHGQDYLVGNKLSRADIHLVELLYYVEELDSSLISSFPLLKALKTRISNLPTVKKFLQPGSPRKPPMDEKSLEEARKIFRF
# Conditions: Homo sapiens, pH 7, 25 °C, Sodium phosphate 20 mM, NaCl 100 mM, transition: 3, reversible: yes, whole UniProt chain shown
protein,measurement,setting,value
B1,denaturant midpoint (higher = more stable),"GdnHCl, Absorbance",1.5 M and 1.3 M and 2.3 M
same,unfolding free energy,"GdnHCl, Absorbance",8.96 kcal/mol and 10.2 kcal/mol and 11.8 kcal/mol
same,denaturant m value,"GdnHCl, CD",4.8 kcal/mol/M
same,denaturant midpoint (higher = more stable),"GdnHCl, CD",2.2 M
same,unfolding free energy,"GdnHCl, CD",17 kcal/mol
same,denaturant midpoint (higher = more stable),"GdnHCl, Fluorescence",1.8 M and 1.1 M and 2.4 M
same,denaturant m value,"Urea, Absorbance",2.12 kcal/mol/M and 2.31 kcal/mol/M
same,denaturant midpoint (higher = more stable),"Urea, Absorbance",4.8 M and 4.1 M
same,unfolding free energy,"Urea, Absorbance",14 kcal/mol and 12.7 kcal/mol
same,denaturant m value,"Urea, CD",3.38 kcal/mol/M and 3.67 kcal/mol/M
same,denaturant midpoint (higher = more stable),"Urea, CD",5.3 M and 4.8 M
same,unfolding free energy,"Urea, CD",19.6 kcal/mol and 17.1 kcal/mol
